# Test results as given in IntAct's records for PubMed 23572552.
# B1: Golgi resident protein GCP60 (Homo sapiens), Q9H3P7 (parent)
# chain: MAAVLNAERLEVSVDGLTLSPDPEERPGAEGAPLLPPPLPPPSPPGSGRGPGASGEQPEPGEAAAGGAAEEARRLEQRWGFGLEELYGLALRFFKEKDGKAFHPTYEEKLKLVALHKQVLMGPYNPDTCPEVGFFDVLGNDRRREWAALGNMSKEDAMVEFVKLLNRCCHLFSTYVASHKIEKEEQEKKRKEEEERRRREEEERERLQKEEEKRRREEEERLRREEEERRRIEEERLRLEQQKQQIMAALNSQTAVQFQQYAAQQYPGNYEQQQILIRQLQEQHYQQYMQQLYQVQLAQQQAALQKQQEVVVAGSSLPTSSKVNATVPSNMMSVNGQAKTHTDSSEKELEPEAAEEALENGPKESLPVIAAPSMWTRPQIKDFKEKIQQDADSVITVGRGEVVTVRVPTHEEGSYLFWEFATDNYDIGFGVYFEWTDSPNTAVSVHVSESSDDDEEEEENIGCEEKAKKNANKPLLDEIVPVYRRDCHEEVYAGSHQYPGRGVYLLKFDNSYSLWRSKSVYYRVYYTR
# partner: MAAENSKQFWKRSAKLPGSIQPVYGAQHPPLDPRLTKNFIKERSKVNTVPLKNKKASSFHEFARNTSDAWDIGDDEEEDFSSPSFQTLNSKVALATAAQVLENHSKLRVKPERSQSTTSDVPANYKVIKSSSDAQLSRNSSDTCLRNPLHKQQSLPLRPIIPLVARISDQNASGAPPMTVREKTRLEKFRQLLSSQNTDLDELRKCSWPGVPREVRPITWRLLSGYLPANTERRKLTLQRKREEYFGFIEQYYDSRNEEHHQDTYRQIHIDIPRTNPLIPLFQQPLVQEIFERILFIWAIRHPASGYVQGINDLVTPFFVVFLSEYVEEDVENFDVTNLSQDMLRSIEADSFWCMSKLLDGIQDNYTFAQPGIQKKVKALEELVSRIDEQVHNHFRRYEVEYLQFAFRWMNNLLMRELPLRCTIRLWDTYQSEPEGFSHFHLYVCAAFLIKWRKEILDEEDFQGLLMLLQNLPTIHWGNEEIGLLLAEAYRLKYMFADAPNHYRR
# B2: Golgi resident protein GCP60 (Homo sapiens), Q9H3P7 (parent)
# chain: B1 chain
# partner: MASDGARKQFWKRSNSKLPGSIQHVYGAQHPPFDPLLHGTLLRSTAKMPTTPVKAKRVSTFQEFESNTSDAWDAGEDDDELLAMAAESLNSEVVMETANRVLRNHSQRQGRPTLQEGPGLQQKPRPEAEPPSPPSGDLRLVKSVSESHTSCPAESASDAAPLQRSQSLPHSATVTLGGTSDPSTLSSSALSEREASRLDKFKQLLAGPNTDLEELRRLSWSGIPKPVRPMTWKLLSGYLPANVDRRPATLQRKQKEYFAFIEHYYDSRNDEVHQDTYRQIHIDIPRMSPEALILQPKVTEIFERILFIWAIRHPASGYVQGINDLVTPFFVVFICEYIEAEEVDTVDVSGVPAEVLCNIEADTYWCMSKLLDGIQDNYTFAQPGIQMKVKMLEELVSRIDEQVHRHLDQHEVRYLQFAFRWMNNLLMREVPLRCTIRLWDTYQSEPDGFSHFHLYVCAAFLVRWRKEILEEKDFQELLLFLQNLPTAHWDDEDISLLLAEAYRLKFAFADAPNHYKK
# B3: Golgi resident protein GCP60 (Homo sapiens), Q9H3P7 (parent)
# chain: B1 chain
# B4: TBC1 domain family member 22A (Homo sapiens), Q8WUA7 (parent)
# chain: B2 partner
# Variants of: B1
# Details: with tb22b_human TBC1D22B
row,Variant,effect of a mutation on the interaction
1,S511A;Y512A;S513A,with no effect
2,H284A,disrupting interaction strength
3,L276A,decreasing interaction strength
4,Q253A,with no effect
5,Y288A,disrupting interaction strength
6,Q260A,with no effect
7,Y285A,decreasing interaction strength
8,G494A;S495A;H496A,with no effect
9,S344A;S345A,with no effect
10,Q245A,with no effect
11,S414A;Y415A;L416A,with no effect
12,Q264A;Q265A;Y266A,with no effect
13,Q257A,decreasing interaction strength
14,Q286A,with no effect
15,Q287A,with no effect
16,S511A,decreasing interaction strength
17,V256A;Q257A;F258A,disrupting interaction strength
18,E282A;Q283A;H284A;Y285A,disrupting interaction strength
19,Q244A,with no effect
20,K243A,with no effect
21,T254A,with no effect
22,F417A;W418A;E419A;F420A,with no effect
23,F258A,decreasing interaction strength
24,Y261A,decreasing interaction strength
25,F433A;E434A;W435A,with no effect
26,I246A,decreasing interaction strength
27,I275A,with no effect
28,Q259A,with no effect

# Variants of: B1
# Details: with tb22b_human TBC1D22B
# Remark: another data set of the same source
row,Variant,effect of a mutation on the interaction
1,Q259A;Q260A;Y261A,with no effect
2,P267A;G268A;N269A,disrupting interaction strength

# Variants of: B2
# Details: with tb22a_human TBC1D22A
row,Variant,effect of a mutation on the interaction
1,I246A;M247A,disrupting interaction strength
2,R196A;R197A;R198A;R199A,with no effect
3,R236A;L237A;R238A;L239A,with no effect
4,K213A;R214A;R215A;R216A,with no effect
5,L164A;L165A;N166A;R167A,with no effect
6,E240A;Q241A;Q242A,with no effect
7,C168A;C169A;H170A,with no effect
8,Q259A;Q260A;Y261A,decreasing interaction strength
9,R221A;L222A;R223A;R224A,with no effect
10,P267A;G268A;N269A,disrupting interaction strength
11,Y270A;E271A;Q272A;Q273A,with no effect
12,E184A;E185A;Q186A;E187A,with no effect
13,E200A;E201A;E202A;E203A,with no effect
14,K188A;K189A;R190A;K191A,with no effect
15,R204A;E205A;R206A;L207A;Q208A,with no effect
16,Q274A;I275A;L276A;I277A,disrupting interaction strength
17,E192A;E193A;E194A;E195A,with no effect
18,E225A;E226A;E227A;E228A,with no effect
19,I246A;M247A;Q253A;T254A,disrupting interaction strength
20,K209A;E210A;E211A;E212A,with no effect

# Variants of: B2
# Details: with tb22a_human TBC1D22A
# Remark: another data set of the same source
row,Variant,effect of a mutation on the interaction
1,F433A;E434A;W435A,with no effect
2,G494A;S495A;H496A,with no effect
3,S511A;Y512A;S513A,with no effect

# Variants of: B3
# Details: with polg_aiva8 polg
row,Variant,effect of a mutation on the interaction
1,W435A,with no effect
2,F433A;E434A;W435A,disrupting interaction strength
3,S511A;Y512A;S513A,disrupting interaction strength
4,S513A,with no effect
5,S511A,with no effect
6,Q264A;Q265A;Y266A,with no effect
7,V256A;Q257A;F258A,with no effect
8,H496A,with no effect
9,Y512A,decreasing interaction strength
10,E434A,with no effect
11,S344A;S345A,with no effect
12,F433A,disrupting interaction strength
13,G494A;S495A;H496A,disrupting interaction strength
14,F417A;W418A;E419A;F420A,disrupting interaction strength
15,S414A;Y415A;L416A,decreasing interaction strength
16,E282A;Q283A;H284A;Y285A,with no effect

# Variants of: B3
# Details: with polg_hkv1 polg
row,Variant,effect of a mutation on the interaction
1,F433A;E434A;W435A,disrupting interaction strength
2,S511A;Y512A;S513A,disrupting interaction strength
3,Q264A;Q265A;Y266A,with no effect
4,V256A;Q257A;F258A,with no effect
5,S344A;S345A,with no effect
6,G494A;S495A;H496A,disrupting interaction strength
7,F417A;W418A;E419A;F420A,disrupting interaction strength
8,S414A;Y415A;L416A,disrupting interaction strength
9,E282A;Q283A;H284A;Y285A,with no effect
10,K507A;F508A;D509A;N510A,disrupting interaction strength

# Variants of: B4
# Details: with gcp60_human ACBD3, Q9H3P7
row,Variant,effect of a mutation on the interaction
1,E92A;V93A,with no effect
2,N90A;S91A;E92A,with no effect
